In article PMC11883000 (2025):
Read-outs that look alike come from different tables or passages of the source. Ends that are not written are not given here. Me2 = dimethylation (dimethyl-lysine); Me3 = trimethyl on lysine side chain

T1: ASH1L plant homeodomain (PHD) finger, wild type (aa 2579-2629) (human, UniProt Q9NR48 2579-2629)
T1 chain: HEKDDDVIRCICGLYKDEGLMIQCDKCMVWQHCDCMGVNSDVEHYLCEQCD

T2: ASH1L PHD finger Y2693K (human, UniProt Q9NR48 2579-2629)
T2 chain: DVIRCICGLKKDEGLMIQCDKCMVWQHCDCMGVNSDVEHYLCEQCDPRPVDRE

T3: ASH1L PHD finger-BAH domain (human, UniProt Q9NR48 2579-2834)
T3 chain: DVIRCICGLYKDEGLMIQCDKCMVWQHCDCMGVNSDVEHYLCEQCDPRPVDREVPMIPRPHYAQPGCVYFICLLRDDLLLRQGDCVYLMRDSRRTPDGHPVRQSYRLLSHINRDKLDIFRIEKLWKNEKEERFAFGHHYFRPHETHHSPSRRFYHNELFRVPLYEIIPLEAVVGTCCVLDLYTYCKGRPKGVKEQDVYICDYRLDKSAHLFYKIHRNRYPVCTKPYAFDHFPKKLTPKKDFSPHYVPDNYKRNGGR


Experiments:
[1] = molecular target: T1, ASH1L plant homeodomain (PHD) finger, …
ASH1L PHD finger D2584A = ASH1L PHD finger D2584A (human, UniProt Q9NR48 2579-2629, Substitution of D2584 with alanine)
ASH1L PHD finger D2595A = ASH1L PHD finger D2595A (human, UniProt Q9NR48 2579-2629, Substitution of D2595 with alanine)
ASH1L PHD finger Y2693K = molecular target: T2, ASH1L PHD finger Y2693K
ASH1L PHD finger D2603A = ASH1L PHD finger D2603A (human, UniProt Q9NR48 2579-2629, D2603A)
ASH1L PHD finger S2618A = ASH1L PHD finger S2618A (human, UniProt Q9NR48 2579-2629, S2618A)
ASH1L PHD finger Q2601K = ASH1L PHD finger Q2601K (human, UniProt Q9NR48 2579-2629, Q2601K)
[2] = molecular target: T1, ASH1L plant homeodomain (PHD) finger, …; test: MST
[3] = molecular target: T3, ASH1L PHD finger-BAH domain

| Kd [1] | Kd (ASH1L PHD finger D2584A) | Kd (ASH1L PHD finger D2595A) | Kd (ASH1L PHD finger Y2693K) | Kd (ASH1L PHD finger D2603A) | Kd (ASH1L PHD finger S2618A) | Kd (ASH1L PHD finger Q2601K) | Kd [2] | Kd [3] | Binder |
| --- | --- | --- | --- | --- | --- | --- | --- | --- | --- |
| 1000 nM | – | – | – | – | – | – | – | – | ARTK(Me2)QTARKSTG [histone H3K4me2 peptide (aa 1-12 of H3)] |
| 1600 nM | 4600 nM | 6700 nM | 1800 nM | 2000 nM | 5900 nM | 1000 nM | 1100 nM | 1000 nM | ARTK(Me3)QTARKSTG [histone H3K4me3 peptide (aa 1-12 of H3)] |
